Measurements published in US20130225493A1.

What was measured:
[1] = molecular target: FGFR3 extracellular domain, immobilized (R3-Fc) (UniProt P22607); experiment: functional ELISA on immobilized FGFR
[2] = molecular target: FGFR1 extracellular domain, immobilized (R1-Fc) (UniProt P11362); experiment: functional ELISA on immobilized FGFR
[3] = molecular target: FGFR2 extracellular domain, immobilized (R2-Fc) (UniProt P21802); experiment: functional ELISA on immobilized FGFR
[4] = molecular target: FGFR3 extracellular domain, immobilized (R3-Fc) (UniProt P22607); experiment: ELISA: biotinylated ligand on immobilized FGFR-Fc, HRP-streptavidin
[5] = molecular target: FGFR1 extracellular domain, immobilized (R1-Fc) (UniProt P11362); experiment: as above
[6] = molecular target: FGFR2 extracellular domain, immobilized (R2-Fc) (UniProt P21802); experiment: as above
[7] = molecular target: FGFR3-IIIc stably expressed on FDCP cells (UniProt P22607); experiment: cell-based or functional assay
FGFR3-IIIc stably expressed on FDCP cells, sequence (P22607 23-806): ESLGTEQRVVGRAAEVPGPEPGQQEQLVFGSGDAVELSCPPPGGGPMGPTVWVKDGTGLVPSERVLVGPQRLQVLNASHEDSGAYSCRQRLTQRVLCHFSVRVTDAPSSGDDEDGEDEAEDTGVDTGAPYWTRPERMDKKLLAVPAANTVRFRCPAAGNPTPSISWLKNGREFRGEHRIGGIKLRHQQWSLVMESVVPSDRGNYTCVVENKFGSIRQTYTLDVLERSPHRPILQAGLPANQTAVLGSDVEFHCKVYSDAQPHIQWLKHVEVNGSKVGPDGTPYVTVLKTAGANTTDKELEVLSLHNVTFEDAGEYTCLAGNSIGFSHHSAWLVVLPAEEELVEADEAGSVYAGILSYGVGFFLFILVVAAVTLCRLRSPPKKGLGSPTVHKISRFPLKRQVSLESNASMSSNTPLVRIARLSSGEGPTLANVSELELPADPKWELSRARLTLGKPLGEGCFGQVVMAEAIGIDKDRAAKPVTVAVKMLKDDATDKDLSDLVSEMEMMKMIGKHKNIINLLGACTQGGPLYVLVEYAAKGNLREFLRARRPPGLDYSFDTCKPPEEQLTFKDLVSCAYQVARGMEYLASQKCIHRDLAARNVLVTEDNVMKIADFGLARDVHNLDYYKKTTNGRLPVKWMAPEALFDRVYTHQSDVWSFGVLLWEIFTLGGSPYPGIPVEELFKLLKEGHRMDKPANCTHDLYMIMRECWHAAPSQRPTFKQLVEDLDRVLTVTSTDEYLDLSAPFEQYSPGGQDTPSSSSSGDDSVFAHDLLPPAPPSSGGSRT

FGF-18^Δ31, sequence (O76093 other isoform, or with tags, fused parts or gaps mutant limits assumed): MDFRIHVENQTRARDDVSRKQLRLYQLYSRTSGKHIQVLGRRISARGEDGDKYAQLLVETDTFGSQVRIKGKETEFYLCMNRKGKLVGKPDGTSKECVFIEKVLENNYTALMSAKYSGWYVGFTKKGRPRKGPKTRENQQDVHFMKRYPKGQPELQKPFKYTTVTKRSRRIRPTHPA
FGF-18 (recombinant wild type, mature form without the signal peptide), sequence (O76093 other isoform, or with tags, fused parts or gaps): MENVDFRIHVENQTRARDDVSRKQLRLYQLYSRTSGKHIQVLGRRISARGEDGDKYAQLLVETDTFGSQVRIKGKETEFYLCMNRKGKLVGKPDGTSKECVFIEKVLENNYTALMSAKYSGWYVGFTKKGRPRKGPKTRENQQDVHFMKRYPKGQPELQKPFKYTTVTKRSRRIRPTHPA
FGF-18^Δ51, sequence (O76093 other isoform, or with tags, fused parts or gaps mutant limits assumed): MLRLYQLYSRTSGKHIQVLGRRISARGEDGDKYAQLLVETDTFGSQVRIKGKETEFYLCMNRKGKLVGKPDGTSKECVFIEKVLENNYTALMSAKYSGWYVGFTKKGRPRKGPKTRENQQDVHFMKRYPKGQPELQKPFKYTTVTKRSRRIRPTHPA
FGF-18^Δ37, sequence (O76093 other isoform, or with tags, fused parts or gaps mutant limits assumed): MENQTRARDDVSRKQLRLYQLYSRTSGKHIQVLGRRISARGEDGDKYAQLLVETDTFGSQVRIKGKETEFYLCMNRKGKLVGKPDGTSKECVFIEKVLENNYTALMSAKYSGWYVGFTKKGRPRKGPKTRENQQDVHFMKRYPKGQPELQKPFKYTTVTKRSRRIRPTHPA
FGF-18^Δ33, sequence (O76093 other isoform, or with tags, fused parts or gaps mutant limits assumed): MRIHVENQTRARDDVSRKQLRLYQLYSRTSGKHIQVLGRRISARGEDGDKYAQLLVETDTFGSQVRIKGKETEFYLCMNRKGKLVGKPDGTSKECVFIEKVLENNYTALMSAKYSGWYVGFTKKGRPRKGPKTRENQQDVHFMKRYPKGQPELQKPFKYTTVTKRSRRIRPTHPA
FGF-18^Δ45, sequence (O76093 other isoform, or with tags, fused parts or gaps mutant limits assumed): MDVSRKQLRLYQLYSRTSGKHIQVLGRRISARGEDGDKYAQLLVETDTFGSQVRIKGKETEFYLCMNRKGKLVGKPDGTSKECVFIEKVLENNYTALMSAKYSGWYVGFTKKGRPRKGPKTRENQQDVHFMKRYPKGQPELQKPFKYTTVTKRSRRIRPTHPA

| EC50 [1] [ng/mL] | EC50 [2] [ng/mL] | EC50 [3] [ng/mL] | EC50 [4] [ng/mL] | EC50 [5] [ng/mL] | EC50 [6] [ng/mL] | EC50 scores of FGF ligands in cell proliferation of FDCPR3 [7] [ng/mL] | Substance |
| --- | --- | --- | --- | --- | --- | --- | --- |
| 8.27 |  |  |  |  |  |  | FGF-18^Δ33 (from UniProt O76093 34-207) (ligand) |
| 8.55 | 24.4 | 11.2 |  |  |  |  | FGF-18^Δ31 (from UniProt O76093 32-207) (ligand) |
|  |  |  | 9.16 |  |  |  | FGF-18^Δ45 (from UniProt O76093 46-207) (ligand) |
| 6.59 | 22.8 | 8.76 | 5.04 | 28.2 | 9.51 |  | FGF-18 (recombinant wild type, mature form without the signal peptide) (from UniProt O76093 29-207) (ligand) |
|  |  |  |  |  |  | 1.19 | FGF-2 wild type (from UniProt P09038 134-288) (ligand) |
| 9.75 |  |  | 5.94 |  |  |  | FGF-18^Δ37 (from UniProt O76093 38-207) (ligand) |
| 9.99 | 41.9 | 43.5 | 10.2 |  |  |  | FGF-18^Δ51 (from UniProt O76093 52-207) (ligand) |
